Test results as given in PMC4180279 (Biochemistry, 2014).
Changes are numbered by the printed parent chain.

B1: GST-PQ: GST-tagged residues 1898–2035 of the rat P/Q channel α1 subunit, encompassing IQ motif and CBD (protein, UniProt P54282 1898-2035, looked up, fragment)
chain: KSTDLTVGKIYAAMMIMEYYRQSKAKKLQAMREEQNRTPLMFQRMEPPSPTQEGGPSQNALPSTQLDPGGGLMAQESSMKESPSWVTQRAQEMFQKTGTWSPERGPPIDMPNSQPNSQSVEMREMGTDGYSDSEHYLP
modifications: GST tag
notes: GST-tagged residues 1898–2035 of the rat P/Q channel α1 subunit, encompassing IQ motif and CBD
B2: ^myrPQ-YFP: C-terminally YFP-tagged P/Q 1898–2035 with N-terminal myristoylation consensus sequence (protein, UniProt P54282 1898-2035, looked up, fragment)
chain: B1 chain
modifications: N-terminal myristoylation sequence, C-terminal YFP tag
B3: GST^IM→EE: GST-PQ with IM residues at positions 1913 and 1914 mutated to glutamic acid (protein, UniProt P54282 1898-2035, looked up, variant I1913E M1914E)
chain: B1 chain with I16E, M17E
modifications: GST tag
notes: GST-PQ with IM residues at positions 1913 and 1914 mutated to glutamic acid
B4: GST-CBD: GST-tagged CaM-binding domain, residues 1950–2035 of the rat P/Q channel α1 subunit (protein, UniProt P54282 1950-2035, looked up, fragment)
chain: EGGPSQNALPSTQLDPGGGLMAQESSMKESPSWVTQRAQEMFQKTGTWSPERGPPIDMPNSQPNSQSVEMREMGTDGYSDSEHYLP
modifications: GST tag

Columns and labels:
[1] = biological target: T1, NCS-1 (Homo sapiens, UniProt P62166); experiment: In vitro pull-down binding of NCS-1 to GST-PQ constructs, Western blot densitometry; settings: for average NCS-1 bound: 5 μM GST fusion protein, 5 μM NCS-1, 1 h, 4 °C, pH 7.4, normalized: NCS-1 bound to GST-PQ with Ca2+ = 100%, minimal binding without Ca2+ = 0%, mean of n = 3
T1 construct: His tag (TEV-cleavable) (N, cleaved yes); made in house; host or cells: Escherichia coli BL21(DE3)
T1 sequence (P62166 whole entry, species assumed, the tested form may be a part): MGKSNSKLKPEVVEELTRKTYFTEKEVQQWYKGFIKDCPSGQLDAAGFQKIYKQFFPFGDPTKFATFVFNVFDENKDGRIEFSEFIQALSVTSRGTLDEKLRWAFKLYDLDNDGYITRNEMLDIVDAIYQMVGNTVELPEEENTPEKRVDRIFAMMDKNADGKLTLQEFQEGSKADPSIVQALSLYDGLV

[2] = system: CaM; experiment: In vitro pull-down binding of CaM to GST-PQ constructs, Western blot; parameters: species or system human; settings: presence or absence of 1 μM free Ca2+
Excerpt: DNA constructs and molecular biology GST-NCS-1[24] and NCS-1-mCherry[18] plasmids were as previously described. The coding sequence for human CaM was amplified by polymerase chain reaction (PCR) from oligo-dT(15)-primed HeLa cell RNA and reverse-transcribed first-strand cDNA template with the following primer pair (based on GenBank accession number M19311) containing restriction endonuclease sites (underlined) for subcloning into N-terminal GST tag vector pGex6P-1 (Amersham Biosciences): sense (BamHI), 5′-[…]-3′; antisense (XhoI), 5′-[…]-3′. GST-P/Q, encoding residues 1898–2035 of the rat P/Q channel α1 subunit (GenBank accession number NM_012918) was amplified by PCR from a rat brain single-strand cDNA template with the following primer pair containing restriction endonuclease sites (underlined) for subcloning into pGex6P-1: sense (BamHI), 5′-[…]-3′; antisense (XhoI), 5′-[…]-3′. GST-CBD (residues 1950–2035) of the rat P/Q channel α1 subunit was amplified by PCR from the GST-P/Q template using the P/Q reverse primer and a sense primer containing a BamHI site (underlined) for subsequent subcloning into pGex6P-1 (5′-[…]-3′). GST-P/Q^IM→EE was generated by site-directed mutagenesis of the GST-P/Q plasmid using the QuikChange reagents and protocol (Agilent Technologies) and the following primer pair: sense, 5′-[…]-3′; antisense, 5′-[…]-3′.
For the In vitro protein binding assays, 5 μM GST fusion protein (GST-P/Q, GST-P/Q^IM→EE, or GST-CBD) was immobilized onto 30 μL of glutathione-agarose resin (Thermo Scientific) that had been prewashed in binding buffer (BB) [150 mM KCl, 20 mM HEPES (pH 7.4), 10% (v/v) glycerol, 5 mM NTA, 5 mM EGTA, 1 mM DTT, and 0.1% (v/v) NP-40] or BB supplemented with 1 μM free Ca^2+ (BB+Ca^2+) by incubation for 30 min with constant agitation at 4 °C. […]
Nitrocellulose filters were blocked by incubation in a blocking solution [3% (w/v) skim milk powder in PBS] for 1 h at room temperature. […] Densitometry analysis of developed Western blots was performed using Quantity-1 (Bio-Rad). […]

[3] = system: HeLa cells; experiment: Localization of fluorescently tagged proteins in HeLa cells, confocal imaging, puncta scoring; type: cell-based; settings: for cells with puncta: 24 h post-transfection, means ± SEM
Excerpt: Myristoylated PQ (residues 1898–2035, ^myrPQ-YFP) was constructed as follows. A DNA fragment encoding the myristoylation sequence taken from ref ([25]) was inserted between the XhoI and HindIII sites of pEYFP-N1 (Clontech) to generate p^myrEYFP-N1. PQ^1898–2035 was amplified by PCR from the existing pGex template with the following primer pair containing restriction endonuclease sites (underlined) for subsequent subcloning into p^myrEYFP-N1: sense (HindIII), 5′-ATAT AAGCTTAAGTCCACGGACCTGACAGTG-3′; antisense (SacII), 5′-ATAT CCGCGGGGGGAGGTAGTGTTCGCTGTC-3′. All constructs were verified by dideoxy sequencing (The Sequencing Service, University of Dundee, Dundee, U.K.).
HeLa cells were cultured in DMEM supplemented with 10% (v/v) fetal bovine serum, 1% (v/v) penicillin/streptomycin, and 1% (v/v) nonessential amino acids. All cells were maintained in a humidified 95% air/5% CO2 atmosphere at 37 °C. Cells were plated onto sterile 13 mm round coverslips at a density of 0.25 × 10^6 cells/well. After 24 h, cells were transiently transfected with the indicated expression vectors using GeneJuice transfection reagent (Novagen) according to the manufacturer’s protocol. For single and double transfections, 1 μg of each plasmid was used.
Twenty-four hours post-transfection, cells on coverslips were washed with phosphate-buffered saline [137 mM NaCl, 2.7 mM KCl, 10 mM Na2PO4, and 2 mM NaH2PO4 (pH 7.4)] and then fixed with 4% (v/v) formaldehyde in PBS for 6 min at room temperature. Coverslips were subsequently air-dried and mounted onto microscope slides using Prolong antifade glycerol (Life Technologies). Fixed cells were imaged using a Leica TCS-SP2 confocal system (Leica Microsystems, Heidelberg, Germany) with a pinhole set to 1 Airy unit and a 63× oil immersion objective with a numerical aperture of 1.3. Images were exported as TIFF files and compiled, processed, and analyzed with ImageJ and CorelDraw X6 applications.

[4] = without Ca2+ (5 mM EGTA, 5 mM NTA)

Molecule	NCS-1 binding (qualitative) ([1]; presence or absence of 1 μM free Ca2+, Western blot)	average NCS-1 bound ([1]; with Ca2+ (1 μM free Ca2+)) [%]	average NCS-1 bound [1, 4] [%]	CaM binding (qualitative) [2]	cellular localization ([3]; HeLa cells, without myrPQ-YFP puncta)	colocalization of soluble mCherry with myrPQ-YFP ([3]; control cotransfection with soluble mCherry, data not shown)	cells with puncta ([3]; control myrPQ-YFP + mCherry, three independent experiments) [%]	cells with puncta ([3]; cotransfected NCS-1-mCherry + myrPQ-YFP, four independent experiments) [%]
B1	Ca^2+-dependent binding	100	31.2	Ca^2+-dependent binding	–	–	–	–
B2	–	–	–	–	plasma membrane and/or large cytosolic puncta	no colocalization	43.6 ± 3	39.5 ± 9.2
B3	–	–	2.8	no detectable binding	–	–	–	–
B4	–	–	4.9	no detectable binding	–	–	–	–
